Reference: the Human Domainome abundance scans (Beltran et al. 2025)
± gives the uncertainty stated by the source.

B1: Cell division cycle and apoptosis regulator protein 1, residues 625 to 674; numbered along this chain, Q8IX12 (parent)
chain: ISTPTHWSKLDPKTMKVNDLRKELESRALSSKGLKSQLIARLTKQLKVEE

Variants of: B1
Test: abundance fitness (aPCA) (normalised: wild type 0, dead -1); higher = more abundant; growth selection in yeast, the domain comes from the species named
Details: Homo sapiens

| Variant | abundance fitness |
| --- | --- |
| ISTPTHWSKLDPKTMKVNDLRKELESRALSSKKLKSQLIARLTKQLKVEE [G33K] | -0.939 ± 0.071 |
| ISTPTHWSKLDPKTMKVNDLRKELESRALSSKNLKSQLIARLTKQLKVEE [G33N] | -1.2 ± 0.3 |
| ISTPTHWSKLDPKTMKVNDLRKELESRALSSKILKSQLIARLTKQLKVEE [G33I] | -1.04 ± 0.25 |
| ISTPTHWSKLDPKTMKVNDLRKELESRALSSKLLKSQLIARLTKQLKVEE [G33L] | -1.04 ± 0.052 |
| ISTPTHWSKLDPKTMKVNDLRKELESRALSSKFLKSQLIARLTKQLKVEE [G33F] | -0.98 ± 0.14 |
| ISTPTHWSKLDPKTMKVNDLRKELESRALSSKSLKSQLIARLTKQLKVEE [G33S] | -0.934 ± 0.063 |
| ISTPTHWSKLDPKTMKVNDLRKELESRALSSKTLKSQLIARLTKQLKVEE [G33T] | -1.03 ± 0.055 |
| ISTPTHWSKLDPKTMKVNDLRKELESRALSSKMLKSQLIARLTKQLKVEE [G33M] | -1.03 ± 0.13 |
| ISTPTHWSKLDPKTMKVNDLRKELESRALSSKHLKSQLIARLTKQLKVEE [G33H] | -0.932 ± 0.14 |
| ISTPTHWSKLDPKTMKVNDLRKELESRALSSKQLKSQLIARLTKQLKVEE [G33Q] | -0.819 ± 0.05 |
| ISTPTHWSKLDPKTMKVNDLRKELESRALSSKDLKSQLIARLTKQLKVEE [G33D] | -0.62 ± 0.079 |
| ISTPTHWSKLDPKTMKVNDLRKELESRALSSKYLKSQLIARLTKQLKVEE [G33Y] | -1.03 ± 0.17 |
| ISTPTHWSKLDPKTMKVNDLRKELESRALSSKWLKSQLIARLTKQLKVEE [G33W] | -1.07 ± 0.073 |
| ISTPTHWSKLDPKTMKVNDLRKELESRALSSKALKSQLIARLTKQLKVEE [G33A] | -0.891 ± 0.059 |
| ISTPTHWSKLDPKTMKVNDLRKELESRALSSKVLKSQLIARLTKQLKVEE [G33V] | -0.919 ± 0.055 |
| ISTPTHWSKLDPKTMKVNDLRKELESRALSSKRLKSQLIARLTKQLKVEE [G33R] | -1.04 ± 0.046 |
| ISTPTHWSKLDPKTMKVNDLRKELESRALSSKCLKSQLIARLTKQLKVEE [G33C] | -1 ± 0.073 |
| ISTPTHWSKLDPKTMKVNDLRKELESRALSSKELKSQLIARLTKQLKVEE [G33E] | -0.857 ± 0.058 |
| ISTPTHWSKLDPKTMKVNDLRKELESRALNSKGLKSQLIARLTKQLKVEE [S30N] | 0.126 ± 0.055 |
| ISTPTHWSKLDPKTMKVNDLRKELESRALISKGLKSQLIARLTKQLKVEE [S30I] | -0.185 ± 0.071 |
| ISTPTHWSKLDPKTMKVNDLRKELESRALVSKGLKSQLIARLTKQLKVEE [S30V] | -0.047 ± 0.034 |
| ISTPTHWSKLDPKTMKVNDLRKELESRALLSKGLKSQLIARLTKQLKVEE [S30L] | -0.184 ± 0.029 |
| ISTPTHWSKLDPKTMKVNDLRKELESRALKSKGLKSQLIARLTKQLKVEE [S30K] | 0.037 ± 0.047 |
| ISTPTHWSKLDPKTMKVNDLRKELESRALMSKGLKSQLIARLTKQLKVEE [S30M] | -0.067 ± 0.035 |
| ISTPTHWSKLDPKTMKVNDLRKELESRALESKGLKSQLIARLTKQLKVEE [S30E] | -0.071 ± 0.043 |
| ISTPTHWSKLDPKTMKVNDLRKELESRALYSKGLKSQLIARLTKQLKVEE [S30Y] | -0.141 ± 0.048 |

| Variant | abundance fitness |
| --- | --- |
| ISTPTHWSKLDPKTMKVNDLRKELESRALWSKGLKSQLIARLTKQLKVEE [S30W] | -0.283 ± 0.043 |
| ISTPTHWSKLDPKTMKVNDLRKELESRALDSKGLKSQLIARLTKQLKVEE [S30D] | 0.016 ± 0.059 |
| ISTPTHWSKLDPKTMKVNDLRKELESRALQSKGLKSQLIARLTKQLKVEE [S30Q] | -0.148 ± 0.045 |
| ISTPTHWSKLDPKTMKVNDLRKELESRALHSKGLKSQLIARLTKQLKVEE [S30H] | -0.152 ± 0.064 |
| ISTPTHWSKLDPKTMKVNDLRKELESRALASKGLKSQLIARLTKQLKVEE [S30A] | -0.05 ± 0.045 |
| ISTPTHWSKLDPKTMKVNDLRKELESRALCSKGLKSQLIARLTKQLKVEE [S30C] | 0.069 ± 0.048 |
| ISTPTHWSKLDPKTMKVNDLRKELESRALPSKGLKSQLIARLTKQLKVEE [S30P] | 0.036 ± 0.048 |
| ISTPTHWSKLDPKTMKVNDLRKELESRALGSKGLKSQLIARLTKQLKVEE [S30G] | -0.026 ± 0.037 |
| ISTPTHWSKLDPKTMKVNDLRKELESRALTSKGLKSQLIARLTKQLKVEE [S30T] | -0.034 ± 0.033 |
| ISTPTHWSKLDPKTMKVNDLRKELESRAQSSKGLKSQLIARLTKQLKVEE [L29Q] | -0.172 ± 0.051 |
| ISTPTHWSKLDPKTMKVNDLRKELESRAHSSKGLKSQLIARLTKQLKVEE [L29H] | -0.286 ± 0.066 |
| ISTPTHWSKLDPKTMKVNDLRKELESRAMSSKGLKSQLIARLTKQLKVEE [L29M] | -0.021 ± 0.052 |
| ISTPTHWSKLDPKTMKVNDLRKELESRAASSKGLKSQLIARLTKQLKVEE [L29A] | -0.899 ± 0.059 |
| ISTPTHWSKLDPKTMKVNDLRKELESRAPSSKGLKSQLIARLTKQLKVEE [L29P] | -0.86 ± 0.098 |
| ISTPTHWSKLDPKTMKVNDLRKELESRAKSSKGLKSQLIARLTKQLKVEE [L29K] | -0.226 ± 0.056 |
| ISTPTHWSKLDPKTMKVNDLRKELESRASSSKGLKSQLIARLTKQLKVEE [L29S] | -0.368 ± 0.031 |
| ISTPTHWSKLDPKTMKVNDLRKELESRADSSKGLKSQLIARLTKQLKVEE [L29D] | -0.732 ± 0.1 |
| ISTPTHWSKLDPKTMKVNDLRKELESRAWSSKGLKSQLIARLTKQLKVEE [L29W] | -0.746 ± 0.039 |
| ISTPTHWSKLDPKTMKVNDLRKELESRAISSKGLKSQLIARLTKQLKVEE [L29I] | 0.045 ± 0.054 |
| ISTPTHWSKLDPKTMKVNDLRKELESRAVSSKGLKSQLIARLTKQLKVEE [L29V] | -0.476 ± 0.034 |
| ISTPTHWSKLDPKTMKVNDLRKELESRARSSKGLKSQLIARLTKQLKVEE [L29R] | -0.213 ± 0.031 |
| ISTPTHWSKLDPKTMKVNDLRKELESRAESSKGLKSQLIARLTKQLKVEE [L29E] | -0.46 ± 0.046 |
| ISTPTHWSKLDPKTMKVNDLRKELESRANSSKGLKSQLIARLTKQLKVEE [L29N] | -0.552 ± 0.083 |
| ISTPTHWSKLDPKTMKVNDLRKELESRAFSSKGLKSQLIARLTKQLKVEE [L29F] | -0.112 ± 0.058 |
| ISTPTHWSKLDPKTMKVNDLRKELESRAGSSKGLKSQLIARLTKQLKVEE [L29G] | -0.853 ± 0.04 |
| ISTPTHWSKLDPKTMKVNDLRKELESRAYSSKGLKSQLIARLTKQLKVEE [L29Y] | -0.384 ± 0.048 |
